Data reported in patent US6972319B1, “Pituitary adenylate cyclase activating peptide (PACAP)receptor 3 (R3) agonists and their pharmacological methods of use” (priority 1999, dated 2005).

Biological target: T1, PACAP-R3 (human, UniProt P41587 24-438)
T1 sequence (looked up): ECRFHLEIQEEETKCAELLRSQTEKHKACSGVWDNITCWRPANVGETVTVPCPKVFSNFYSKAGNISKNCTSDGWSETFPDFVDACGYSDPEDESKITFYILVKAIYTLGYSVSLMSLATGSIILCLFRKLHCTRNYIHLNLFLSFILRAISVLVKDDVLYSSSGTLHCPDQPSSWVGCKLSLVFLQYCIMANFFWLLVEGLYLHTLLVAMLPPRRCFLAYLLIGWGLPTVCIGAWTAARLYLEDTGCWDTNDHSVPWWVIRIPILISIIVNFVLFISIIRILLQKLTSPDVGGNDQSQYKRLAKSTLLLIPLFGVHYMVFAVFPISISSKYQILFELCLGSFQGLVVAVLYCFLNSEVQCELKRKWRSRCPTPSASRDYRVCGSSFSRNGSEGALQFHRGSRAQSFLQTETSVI
Assay: cell-based or functional assay

HSDAVFTDNYTRLRKQMAAKKYLNSIKNKA [R3P153]
R3 EC50: 200 pM | R3 Selectivity: 200

HSDAVFTDNYTRLRKQMAAKKYLNSIKNKG [R3P158]
R3 EC50: 70 pM | R3 Selectivity: 90

HSDAVFTENYTKLRKQLAAKKYLNDLKKGGTSWCEPGWCR [R3P19]
R3 EC50: 1400 pM | R3 Selectivity: 30

HSDAVFTDNYTRLRKQMAAKKYLNSIKNKN [R3P164]
R3 EC50: 300 pM | R3 Selectivity: 300

HSDAVFTDNYTRLRKQMAAKKYLNSIKNQR [R3P146]
R3 EC50: 300 pM | R3 Selectivity: 100

HSDAVFTDNYTRLRKQMAAKKYLNSIKNTR [R3P149]
R3 EC50: 500 pM | R3 Selectivity: 80

HSDAVFTDNYTRLRKQMAAKKYLNSIKNKE [R3P156]
R3 EC50: 1000 pM | R3 Selectivity: 100

HSDAVFTDNYTRLRKQMAAKKYLNSIKNKK [R3P161]
R3 EC50: 200 pM | R3 Selectivity: 300

HSDAVFTDNYTRLRKQMAVKKYLNDLKKGGT [R3P14]
R3 EC50: 17000 pM | R3 Selectivity: 3

HSDAVFTDNYTRLRKQMAAKKYLNDIKKGGT [R3P20]
R3 EC50: 1400 pM | R3 Selectivity: 230

HSDAVFTDNYTRLRKQLAVKKYLNDIKKGGT [R3P21]
R3 EC50: 300 pM | R3 Selectivity: 60

HSDAVFTDNYTRLRKQMAAKKYLNSIKNKI [R3P160]
R3 EC50: 200 pM | R3 Selectivity: 500

HSDAVFTDNYTRLRKQMAAKKYLNSIKNKF [R3P157]
R3 EC50: 300 pM | R3 Selectivity: 170

HSDAVFTDNYTRLRKQMAAKKYLNSIKNKD [R3P155]
R3 EC50: 400 pM | R3 Selectivity: 100

HSDAVFTDNYTRLRKQMAAKKYLNSIKNVR [R3P150]
R3 EC50: 800 pM | R3 Selectivity: 50

HSDAVFTDNYTRLRKQMAAKKYLNSIKNSR [R3P148]
R3 EC50: 300 pM | R3 Selectivity: 100

HSDAVFTDNYTRLRKQMAAKKYLNSIKNKM [R3P163]
R3 EC50: 200 pM

HSDAVFTDNYTRLRKQMAAKKYLNSIKNKH [R3P159]
R3 EC50: 500 pM | R3 Selectivity: 400

HSDAVFTDNYTRLRKQMAAKKYLNSIKNRR [R3P147]
R3 EC50: 200 pM | R3 Selectivity: 500
